Sequences and labels used below:
T1: extracellular domain of human CS1 protein (human, UniProt Q9NQ25 23-226)
T1 construct: Panning target; also called CS1 mature ECD
T1 sequence: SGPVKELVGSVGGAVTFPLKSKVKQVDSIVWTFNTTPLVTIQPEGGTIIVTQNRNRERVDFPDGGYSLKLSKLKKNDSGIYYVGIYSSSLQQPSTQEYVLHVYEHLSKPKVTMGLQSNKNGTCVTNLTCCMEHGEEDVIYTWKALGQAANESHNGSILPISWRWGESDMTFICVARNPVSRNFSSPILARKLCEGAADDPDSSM

T2: CD123 (Homo sapiens (Human), UniProt P26951 19-305, limits assumed)
T2 sequence: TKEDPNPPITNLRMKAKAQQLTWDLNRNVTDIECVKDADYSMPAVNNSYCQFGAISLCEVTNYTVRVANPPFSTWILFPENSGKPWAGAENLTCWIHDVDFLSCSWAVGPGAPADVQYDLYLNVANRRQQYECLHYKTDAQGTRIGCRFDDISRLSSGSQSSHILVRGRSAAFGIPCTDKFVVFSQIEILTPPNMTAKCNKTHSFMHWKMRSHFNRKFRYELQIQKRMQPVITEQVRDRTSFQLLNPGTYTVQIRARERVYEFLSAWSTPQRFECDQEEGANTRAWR

B1: cc12 CS1 ADBD (SEQ ID NO: 791) (designed binder)
chain: MGSWHHFKMHLAGIKLQLEALGGSEAELAEFEEWIADFEGALQDYKGKGNPEVEALRKEAAAIRDELQAYRHN
B2: cc09 CS1 ADBD (SEQ ID NO: 788) (designed binder)
chain: MGSWNEFKLELAFIKDWLEALGGSEAELANFEEAIAEFEAGLQGYKGKGNPEVEALRKEAAAIRDELQAYRHN
B3: cc01 CS1 ADBD (SEQ ID NO: 780) (designed binder)
chain: MGSWVEFEARLSAIYERLEALGGSEAELAAFEKEIAAFESELQAYKGKGNPEVEKLRRHAAGIRSNLQAYRHN
B4: cc08 CS1 ADBD (SEQ ID NO: 787) (designed binder)
chain: B3 chain with E8N, A9E, S12H, E16L, E19D, K55T, S65W, N66Q
B5: cc02 CS1 ADBD (SEQ ID NO: 781) (designed binder)
chain: B3 chain with E8F, A9V, S12D, Y15W, K55T, R58F, S65Q, N66K
B6: cc10 CS1 ADBD (SEQ ID NO: 789) (designed binder)
chain: B3 chain with V5M, S12E, Y15W, E16D, K55S, R58F, S65Q, N66H
B7: eb03 HER2 ADBD (SEQ ID NO: 804) (designed binder)
chain: MGSWAEFRWRLHAIWLQLGALGGSEAELAAFEKEIAAFESELQAYKGKGNPEVEWLRQDAAQIKYILQAYRHN
B8: D-domain SEQ ID NO: 348 (designed binder)
chain: MGSWWEFDDRLFAIDTRLMALGGSEAELAAFEKEIAAFESELQAYKGKGNPEVESLREWAATIRMELQAYRHN
B9: D-domain SEQ ID NO: 345 (designed binder)
chain: MGSWYEFWIRLEAIDDRLFALGGSEAELAAFEKEIAAFESELQAYKGKGNPEVDILRDFAADIRTELQAYRHN
B10: D-domain SEQ ID NO: 346 (designed binder)
chain: MGSWHEFWDRLEAIDDRLYALGGSEAELAAFEKEIAAFESELQAYKGKGNPEVEFLREEAAYIRELLQAYRHN
B11: D-domain SEQ ID NO: 347 (designed binder)
chain: B10 chain with H5E, E12F, Y19W, F55T, E58N, Y62E, E65M, L66A
B12: D domain SEQ ID NO: 800 (designed binder)
chain: MGSWHEFRWRLFAIWQRLHALGGSEAELAAFEKEIAAFESELQAYKGKGNPEVEWLRLDAALIRVMLQAYRHN

Changes are numbered by the printed parent chain.

The target in one assay is T1, extracellular domain of human CS1 …. In words: phage display panning.
For the molecule B1, the binding result is on record as “binds”.

For the molecule B2, the binding result is reported as “binds”.

Take B3: the binding result was “binds”.

For B4, the binding result is “binds”.

For B5, the binding result is “binds”.

B6: the binding result was “binds”.

For another assay, the target named is T3, extracellular domain of human HER2 protein (human, UniProt P04626 23-652).
T3 construct: Panning target; also called HER2 mature ECD; HER2 (ERBB2, CD340)
Description: phage display panning.
For B7, the binding result is “binds”.

The target of another assay is T2, CD123. Description: ELISA, format not described. Also on record: unit not given here. (In general: ELISA stands for enzyme-linked immunosorbent assay.)
With B8, the ELISA_avg was 3.5.

As to B9, the ELISA_avg was 10.4.

On to B10, for which the ELISA_avg was 10.6.

Molecule B11 had an ELISA_avg of 3.1.

In a further assay the target is T4, HER2 (human, UniProt P04626 23-652).
T4 construct: also called ERBB2; CD340
Description: ELISA, format not described. Also on record: unit not given here.
As to B12, the ELISA_avg was determined as 10.

Values taken from patent US20250026849A1 (ARCELLX, published 2025).
